Data as given in US20210139548A1 (published 2021).
Each block holds one binder with its values, some of them ahead of it. *1 amine or outer side, *2 acyl side, *3 side chain or, on linkers, in order; H or OH if unused. Side-chain parts run from the residue outwards. The star is where a group is joined. C18 diacid = O=C(O)CCCCCCCCCCCCCCCCC(=O)*; γGlu = O=C(O)[C@H](CCC(=O)[*:2])N[*:1]; Isovaleryl = CC(C)CC(=O)*; AEEA = NCCOCCOCC(=O)O

Target: T1, human neuropeptide Y2 receptor (human, UniProt P49146 1-381)
T1 construct: whole, on cells; also called hNPY2 receptor; hNPY2-R
T1 sequence (looked up): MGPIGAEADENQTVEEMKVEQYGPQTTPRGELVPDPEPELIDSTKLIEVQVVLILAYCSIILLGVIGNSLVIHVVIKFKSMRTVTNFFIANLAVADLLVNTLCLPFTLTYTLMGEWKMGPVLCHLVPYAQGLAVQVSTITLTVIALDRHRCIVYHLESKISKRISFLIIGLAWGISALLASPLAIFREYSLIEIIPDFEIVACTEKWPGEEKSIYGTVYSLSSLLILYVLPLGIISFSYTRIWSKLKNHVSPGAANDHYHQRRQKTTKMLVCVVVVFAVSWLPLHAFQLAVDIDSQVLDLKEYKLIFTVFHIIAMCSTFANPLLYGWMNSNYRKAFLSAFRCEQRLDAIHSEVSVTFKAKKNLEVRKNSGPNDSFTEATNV
Experiment: radioligand competition (125I-PYY(1-36)), hNPY2R membranes
Outline: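 Commercial human Y2 receptor membranes (0.5 μg protein/well) were incubated with peptide for 2 h at room temperature in 50 mM HEPES, 5 mM MgCl₂, 1 mM CaCl₂, pH 7.4, with 0.2% ovalbumin. Bound radioligand was separated on PEI-soaked GF/C filters and counted by scintillation, and IC₅₀ came from nonlinear sigmoidal regression.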

B2: Compound 109 (peptide)
peptide: Isovaleryl-APEK([AEEA-AEEA-γGlu-C18 diacid])PEEAASPEELQRYYVSLRHYYNWLTRQRY-NH2
SMILES: CC(C)CC(=O)N[C@@H](C)C(=O)N1CCC[C@H]1C(=O)N[C@@H](CCC(=O)O)C(=O)N[C@@H](CCCCNC(=O)COCCOCCNC(=O)COCCOCCNC(=O)CC[C@H](NC(=O)CCCCCCCCCCCCCCCCC(=O)O)C(=O)O)C(=O)N1CCC[C@H]1C(=O)N[C@@H](CCC(=O)O)C(=O)N[C@@H](CCC(=O)O)C(=O)N[C@@H](C)C(=O)N[C@@H](C)C(=O)N[C@@H](CO)C(=O)N1CCC[C@H]1C(=O)N[C@@H](CCC(=O)O)C(=O)N[C@@H](CCC(=O)O)C(=O)N[C@@H](CC(C)C)C(=O)N[C@@H](CCC(N)=O)C(=O)N[C@@H](CCCNC(=N)N)C(=O)N[C@@H](Cc1ccc(O)cc1)C(=O)N[C@@H](Cc1ccc(O)cc1)C(=O)N[C@H](C(=O)N[C@@H](CO)C(=O)N[C@@H](CC(C)C)C(=O)N[C@@H](CCCNC(=N)N)C(=O)N[C@@H](Cc1c[nH]cn1)C(=O)N[C@@H](Cc1ccc(O)cc1)C(=O)N[C@@H](Cc1ccc(O)cc1)C(=O)N[C@@H](CC(N)=O)C(=O)N[C@@H](Cc1c[nH]c2ccccc12)C(=O)N[C@@H](CC(C)C)C(=O)N[C@H](C(=O)N[C@@H](CCCNC(=N)N)C(=O)N[C@@H](CCC(N)=O)C(=O)N[C@@H](CCCNC(=N)N)C(=O)N[C@@H](Cc1ccc(O)cc1)C(N)=O)[C@@H](C)O)C(C)C
Ki: 0.94 nM

B5: Compound 111 (peptide)
peptide: Isovaleryl-APEK([AEEA-AEEA-γGlu-C18 diacid])PEEDAEPEELQRYYVELRHYYNWLTRQRY-NH2
SMILES: CC(C)CC(=O)N[C@@H](C)C(=O)N1CCC[C@H]1C(=O)N[C@@H](CCC(=O)O)C(=O)N[C@@H](CCCCNC(=O)COCCOCCNC(=O)COCCOCCNC(=O)CC[C@H](NC(=O)CCCCCCCCCCCCCCCCC(=O)O)C(=O)O)C(=O)N1CCC[C@H]1C(=O)N[C@@H](CCC(=O)O)C(=O)N[C@@H](CCC(=O)O)C(=O)N[C@@H](CC(=O)O)C(=O)N[C@@H](C)C(=O)N[C@@H](CCC(=O)O)C(=O)N1CCC[C@H]1C(=O)N[C@@H](CCC(=O)O)C(=O)N[C@@H](CCC(=O)O)C(=O)N[C@@H](CC(C)C)C(=O)N[C@@H](CCC(N)=O)C(=O)N[C@@H](CCCNC(=N)N)C(=O)N[C@@H](Cc1ccc(O)cc1)C(=O)N[C@@H](Cc1ccc(O)cc1)C(=O)N[C@H](C(=O)N[C@@H](CCC(=O)O)C(=O)N[C@@H](CC(C)C)C(=O)N[C@@H](CCCNC(=N)N)C(=O)N[C@@H](Cc1c[nH]cn1)C(=O)N[C@@H](Cc1ccc(O)cc1)C(=O)N[C@@H](Cc1ccc(O)cc1)C(=O)N[C@@H](CC(N)=O)C(=O)N[C@@H](Cc1c[nH]c2ccccc12)C(=O)N[C@@H](CC(C)C)C(=O)N[C@H](C(=O)N[C@@H](CCCNC(=N)N)C(=O)N[C@@H](CCC(N)=O)C(=O)N[C@@H](CCCNC(=N)N)C(=O)N[C@@H](Cc1ccc(O)cc1)C(N)=O)[C@@H](C)O)C(C)C
Ki: 5.43 nM

B6: Compound 110 (peptide)
peptide: Isovaleryl-APEK([AEEA-AEEA-γGlu-C18 diacid])PEEDAEPEEIQRYYVSLRHYYNWLTRQRY-NH2
SMILES: CC[C@H](C)[C@H](NC(=O)[C@H](CCC(=O)O)NC(=O)[C@H](CCC(=O)O)NC(=O)[C@@H]1CCCN1C(=O)[C@H](CCC(=O)O)NC(=O)[C@H](C)NC(=O)[C@H](CC(=O)O)NC(=O)[C@H](CCC(=O)O)NC(=O)[C@H](CCC(=O)O)NC(=O)[C@@H]1CCCN1C(=O)[C@H](CCCCNC(=O)COCCOCCNC(=O)COCCOCCNC(=O)CC[C@H](NC(=O)CCCCCCCCCCCCCCCCC(=O)O)C(=O)O)NC(=O)[C@H](CCC(=O)O)NC(=O)[C@@H]1CCCN1C(=O)[C@H](C)NC(=O)CC(C)C)C(=O)N[C@@H](CCC(N)=O)C(=O)N[C@@H](CCCNC(=N)N)C(=O)N[C@@H](Cc1ccc(O)cc1)C(=O)N[C@@H](Cc1ccc(O)cc1)C(=O)N[C@H](C(=O)N[C@@H](CO)C(=O)N[C@@H](CC(C)C)C(=O)N[C@@H](CCCNC(=N)N)C(=O)N[C@@H](Cc1c[nH]cn1)C(=O)N[C@@H](Cc1ccc(O)cc1)C(=O)N[C@@H](Cc1ccc(O)cc1)C(=O)N[C@@H](CC(N)=O)C(=O)N[C@@H](Cc1c[nH]c2ccccc12)C(=O)N[C@@H](CC(C)C)C(=O)N[C@H](C(=O)N[C@@H](CCCNC(=N)N)C(=O)N[C@@H](CCC(N)=O)C(=O)N[C@@H](CCCNC(=N)N)C(=O)N[C@@H](Cc1ccc(O)cc1)C(N)=O)[C@@H](C)O)C(C)C
Ki: 0.77 nM

Continued by falling Ki, values first:

Ki: 1.94 nM
B4: Compound 115 (peptide)
peptide: Isovaleryl-APEK([AEEA-AEEA-γGlu-C18 diacid])PEEEASPEALQRYYVSLRHYYNWLTRQRY-NH2
SMILES: CC(C)CC(=O)N[C@@H](C)C(=O)N1CCC[C@H]1C(=O)N[C@@H](CCC(=O)O)C(=O)N[C@@H](CCCCNC(=O)COCCOCCNC(=O)COCCOCCNC(=O)CC[C@H](NC(=O)CCCCCCCCCCCCCCCCC(=O)O)C(=O)O)C(=O)N1CCC[C@H]1C(=O)N[C@@H](CCC(=O)O)C(=O)N[C@@H](CCC(=O)O)C(=O)N[C@@H](CCC(=O)O)C(=O)N[C@@H](C)C(=O)N[C@@H](CO)C(=O)N1CCC[C@H]1C(=O)N[C@@H](CCC(=O)O)C(=O)N[C@@H](C)C(=O)N[C@@H](CC(C)C)C(=O)N[C@@H](CCC(N)=O)C(=O)N[C@@H](CCCNC(=N)N)C(=O)N[C@@H](Cc1ccc(O)cc1)C(=O)N[C@@H](Cc1ccc(O)cc1)C(=O)N[C@H](C(=O)N[C@@H](CO)C(=O)N[C@@H](CC(C)C)C(=O)N[C@@H](CCCNC(=N)N)C(=O)N[C@@H](Cc1c[nH]cn1)C(=O)N[C@@H](Cc1ccc(O)cc1)C(=O)N[C@@H](Cc1ccc(O)cc1)C(=O)N[C@@H](CC(N)=O)C(=O)N[C@@H](Cc1c[nH]c2ccccc12)C(=O)N[C@@H](CC(C)C)C(=O)N[C@H](C(=O)N[C@@H](CCCNC(=N)N)C(=O)N[C@@H](CCC(N)=O)C(=O)N[C@@H](CCCNC(=N)N)C(=O)N[C@@H](Cc1ccc(O)cc1)C(N)=O)[C@@H](C)O)C(C)C

Ki: 1.1 nM
B1: Compound 107 (peptide)
peptide: Isovaleryl-APEK([AEEA-AEEA-γGlu-C18 diacid])PEEDASPEELQKYYVALRHYYNWLTRQRY-NH2
SMILES: CC(C)CC(=O)N[C@@H](C)C(=O)N1CCC[C@H]1C(=O)N[C@@H](CCC(=O)O)C(=O)N[C@@H](CCCCNC(=O)COCCOCCNC(=O)COCCOCCNC(=O)CC[C@H](NC(=O)CCCCCCCCCCCCCCCCC(=O)O)C(=O)O)C(=O)N1CCC[C@H]1C(=O)N[C@@H](CCC(=O)O)C(=O)N[C@@H](CCC(=O)O)C(=O)N[C@@H](CC(=O)O)C(=O)N[C@@H](C)C(=O)N[C@@H](CO)C(=O)N1CCC[C@H]1C(=O)N[C@@H](CCC(=O)O)C(=O)N[C@@H](CCC(=O)O)C(=O)N[C@@H](CC(C)C)C(=O)N[C@@H](CCC(N)=O)C(=O)N[C@@H](CCCCN)C(=O)N[C@@H](Cc1ccc(O)cc1)C(=O)N[C@@H](Cc1ccc(O)cc1)C(=O)N[C@H](C(=O)N[C@@H](C)C(=O)N[C@@H](CC(C)C)C(=O)N[C@@H](CCCNC(=N)N)C(=O)N[C@@H](Cc1c[nH]cn1)C(=O)N[C@@H](Cc1ccc(O)cc1)C(=O)N[C@@H](Cc1ccc(O)cc1)C(=O)N[C@@H](CC(N)=O)C(=O)N[C@@H](Cc1c[nH]c2ccccc12)C(=O)N[C@@H](CC(C)C)C(=O)N[C@H](C(=O)N[C@@H](CCCNC(=N)N)C(=O)N[C@@H](CCC(N)=O)C(=O)N[C@@H](CCCNC(=N)N)C(=O)N[C@@H](Cc1ccc(O)cc1)C(N)=O)[C@@H](C)O)C(C)C

Ki: 0.99 nM
B3: Compound 108 (peptide)
peptide: Isovaleryl-APEK([AEEA-AEEA-γGlu-C18 diacid])PEEDASPEELQRYYVELRHYYNWLTRQRY-NH2
SMILES: CC(C)CC(=O)N[C@@H](C)C(=O)N1CCC[C@H]1C(=O)N[C@@H](CCC(=O)O)C(=O)N[C@@H](CCCCNC(=O)COCCOCCNC(=O)COCCOCCNC(=O)CC[C@H](NC(=O)CCCCCCCCCCCCCCCCC(=O)O)C(=O)O)C(=O)N1CCC[C@H]1C(=O)N[C@@H](CCC(=O)O)C(=O)N[C@@H](CCC(=O)O)C(=O)N[C@@H](CC(=O)O)C(=O)N[C@@H](C)C(=O)N[C@@H](CO)C(=O)N1CCC[C@H]1C(=O)N[C@@H](CCC(=O)O)C(=O)N[C@@H](CCC(=O)O)C(=O)N[C@@H](CC(C)C)C(=O)N[C@@H](CCC(N)=O)C(=O)N[C@@H](CCCNC(=N)N)C(=O)N[C@@H](Cc1ccc(O)cc1)C(=O)N[C@@H](Cc1ccc(O)cc1)C(=O)N[C@H](C(=O)N[C@@H](CCC(=O)O)C(=O)N[C@@H](CC(C)C)C(=O)N[C@@H](CCCNC(=N)N)C(=O)N[C@@H](Cc1c[nH]cn1)C(=O)N[C@@H](Cc1ccc(O)cc1)C(=O)N[C@@H](Cc1ccc(O)cc1)C(=O)N[C@@H](CC(N)=O)C(=O)N[C@@H](Cc1c[nH]c2ccccc12)C(=O)N[C@@H](CC(C)C)C(=O)N[C@H](C(=O)N[C@@H](CCCNC(=N)N)C(=O)N[C@@H](CCC(N)=O)C(=O)N[C@@H](CCCNC(=N)N)C(=O)N[C@@H](Cc1ccc(O)cc1)C(N)=O)[C@@H](C)O)C(C)C
